Target: P301S human tau, T34 isoform (1N4R), of P301S tg mice (line PS19) (human) (UniProt P10636)
Assay: cell-based or functional assay

P301S human tau, T34 isoform (1N4R), of P301S tg mice (line PS19) (human), sequence (P10636 other isoform, or with tags, fused parts or gaps P301S P301S P301S P301S): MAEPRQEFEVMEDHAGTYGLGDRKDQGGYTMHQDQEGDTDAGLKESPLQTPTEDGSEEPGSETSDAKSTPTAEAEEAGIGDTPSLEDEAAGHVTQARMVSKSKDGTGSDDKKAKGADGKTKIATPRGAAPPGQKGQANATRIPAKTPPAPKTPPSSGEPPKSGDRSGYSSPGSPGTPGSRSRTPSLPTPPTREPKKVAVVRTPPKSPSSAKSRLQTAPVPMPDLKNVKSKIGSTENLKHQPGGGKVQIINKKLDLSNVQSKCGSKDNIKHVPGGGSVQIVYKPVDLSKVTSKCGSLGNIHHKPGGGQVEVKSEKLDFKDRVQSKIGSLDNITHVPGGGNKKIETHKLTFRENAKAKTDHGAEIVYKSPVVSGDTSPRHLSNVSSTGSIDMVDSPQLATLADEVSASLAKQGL

antibody concentration that significantly blocked uptake and seeding activity: 0.5 µg/mL
lowest antibody concentration that blocked seeding activity (titration against a fixed amount of P301S brain lysate): 0.25 µg/mL
B1: HJ8.5 (antibody, V domains shown)
VH: EVKVEESGGGLVQPGGSMKLSCVVSGFTFSNYWVNWVRQSPEKGLEWVAQIRLKSDNYATHYEESVKGRFTISRDDSKSSVYLQMNNLRAEDSGIYYCTNWEDYWGQGTTLTVSS
VL: DIVLTQSPASLAVSLGQRATISCRASQSVSTSRYSYIHWYQQKPGQPPKLLIKYASNLESGVPARFSGSGSGTDFTLNIHPLEEEDAATYYCHHSWEIPLTFGAGTKLELK
